This test concerns the target wild type Δ19 spike protein on pseudotyped lentivirus (SARS-CoV-2 (Wuhan-1)), P0DTC2. Briefly: cell-based or functional assay.

B1: SR22 (designed binder)
chain: MGSSHHHHHHSSGLVPRGSHMEQKLISEEDLGSDLGKKLLEAARAGQDDEVRILMANGADVNACDPSGITPLHLAADKGHLEIVEVLLKYGADVNAMDVWGRTPLHLAAFTGHLEIVEVLLKYGADVNACDLNGYTPLHLAAGRGHLEIVEVLLKNGAGVNAQDKFGKTAFDISIDNGNEDLAEILQSSS
Take B1: the Neutralization IC50, pseudotyped lentivirus is 0.7 µM.

B2: FSR16m (designed binder)
chain: MGMEQKLISEEDLDGYIPEAPRDGQAYVRKDGEWVLLSTFLGGGGSLQGGGGSLQGSDLGKKLLEAARAGQDDEVRILMANGADVNALDLFGVTPLHLAAERGHLEIVEVLLKNGADVNAGDAFGRTPLHLAALGGHLEIVEVLLKNGADVNACDLYGVTPLHLAAGLGHLEIVEVLLKNGADVNAQDKFGKTAFDISIDNGNEDLAEILQSSSKLAAALEHHHHHH
On to B2, for which the fold enhancement of neutralization IC50 upon trimerization (against SR16m) is 35000 fold.

B3: SR16m (designed binder)
chain: MGSSDLGKKLLEAARAGQDDEVRILMANGADVNALDLFGVTPLHLAAERGHLEIVEVLLKNGADVNAGDAFGRTPLHLAALGGHLEIVEVLLKNGADVNACDLYGVTPLHLAAGLGHLEIVEVLLKNGADVNAQDKFGKTAFDISIDNGNEDLAEILQSSSKLAAALEHHHHHH
The molecule B3 displayed an IC50, pseudotyped lentivirus of 11 µM and a Neutralization IC50, pseudotyped lentivirus of 11.6 µM.

The record behind these values is patent US20250179152A1.
